Experimental data from PMC5772683.

Target: microtubules (MTs) assembled from bovine brain tubulin (bovine) (UniProt Q6B856)
Assay: co-sedimentation

Kd: 10.7 µM
Substance: human Profilin-1 (PFN1), wildtype (from UniProt P07737 1-140) (natural protein)
